Results from publication PMC7181634, “Enhanced succinic acid production by Mannheimia employing optimal malate dehydrogenase” (Nature Communications, 2020).
Numbering of substitutions follows the chain as printed. Names and notes keep the numbering of the source.

B1: MsMDH ([Mannheimia] succiniciproducens MBEL55E) (protein)
chain: MKVAVLGAAGGIGQALALLLKLQLPAGSSLSLYDVAPVTPGVAKDLSHIPTDVVVEGFAGTDPSEALKGADIVLISAGVARKPGMTRADLFGVNAGIIRSLTEKVAEQCPKACVGIITNPVNAMVAIAAEVLKKAGVYDKRKLFGITTLDILRAETFIAELKGLDPTRVTIPVIGGHSGVTILPLLSQVQNVEWSSEEEIIALTHRIQNAGTEVVEAKAGGGSATLSMAQAAARFALALVKASQGAKVVECAYVEGDGKYARFFAQPVRLGTEGVEEYLTLGKLSAFEEKALNAMLETLQGDIKSGEDFING
notes: full length, C-terminal 6xHis (pET30a), expressed in E. coli BL21(DE3), Ni-NTA, ion exchange and size exclusion
B2: MsMDH ([Mannheimia] succiniciproducens MBEL55E; G11Q) (protein)
chain: B1 chain with G11Q
notes: as for B1
B3: CgMDH (Corynebacterium glutamicum ATCC 13032) (protein)
chain: MNSPQNVSTKKVTVTGAAGQISYSLLWRIANGEVFGTDTPVELKLLEIPQALGGAEGVAMELLDSAFPLLRNITITADANEAFDGANAAFLVGAKPRGKGEERADLLANNGKIFGPQGKAINDNAADDIRVLVVGNPANTNALIASAAAPDVPASRFNAMMRLDHNRAISQLATKLGRGSAEFNNIVVWGNHSATQFPDITYATVGGEKVTDLVDHDWYVEEFIPRVANRGAEIIEVRGKSSAASAASSAIDHMRDWVQGTEAWSSAAIPSTGAYGIPEGIFVGLPTVSRNGEWEIVEGLEISDFQRARIDANAQELQAEREAVRDLL
notes: as for B1

Key:
[1] = substrate: O=C(O)CC(=O)C(=O)O; test: purified protein; type: biochemical, [Mannheimia] succiniciproducens; settings: pH 7.0, 0.1 M Tris-HCl, NADH co-substrate, room temperature
[2] = substrate: O=C(O)CC(=O)C(=O)O; test: purified protein; type: biochemical, Corynebacterium glutamicum; settings: pH 7.0, 0.1 M Tris-HCl, NADH co-substrate, room temperature

Row | Protein | Km [1] [µM] | kcat [1] [s⁻¹] | kcat/Km [1] [M⁻¹ s⁻¹] | Km [2] [µM] | kcat [2] [s⁻¹] | kcat/Km [2] [M⁻¹ s⁻¹]
1 | B1 | 18.2 ± 10.5 | 376 ± 119 | 2.07e+07 ± 4.5e+06 | – | – | –
2 | B2 | 103.5 ± 25.9 | 927 ± 152 | 9e+06 ± 400000 | – | – | –
3 | B3 | – | – | – | 46.1 ± 7.3 | 920 ± 77 | 1.99e+07 ± 300000
